Measurements: publication PMC7570257

Target: PRMT1 catalytic core construct
Assay: SEC

Question: For “PRMT1 catalytic core construct (domain or fragment)”, which stoichiometry N is on record?
Answer: Its stoichiometry N is 4.
